Experimental data from publication doi:10.1101/758698.

How the values were obtained:
Experiment in all cases: fluorescence polarization
hBrr2T1 = hBrr2T1 (human, UniProt O75643 395-2129)
hBrr2T1-SS-rot+ = hBrr2T1-SS-rot+ (human, UniProt O75643 395-2129, D534C;N1866C)
hBrr2T1-SS-linear = hBrr2T1-SS-linear (human, UniProt O75643 395-2129, M641C;A1582C)

Measured: binding result

hBrr2T1-SS-linear, sequence (O75643 395-2129 M641C/A1582C): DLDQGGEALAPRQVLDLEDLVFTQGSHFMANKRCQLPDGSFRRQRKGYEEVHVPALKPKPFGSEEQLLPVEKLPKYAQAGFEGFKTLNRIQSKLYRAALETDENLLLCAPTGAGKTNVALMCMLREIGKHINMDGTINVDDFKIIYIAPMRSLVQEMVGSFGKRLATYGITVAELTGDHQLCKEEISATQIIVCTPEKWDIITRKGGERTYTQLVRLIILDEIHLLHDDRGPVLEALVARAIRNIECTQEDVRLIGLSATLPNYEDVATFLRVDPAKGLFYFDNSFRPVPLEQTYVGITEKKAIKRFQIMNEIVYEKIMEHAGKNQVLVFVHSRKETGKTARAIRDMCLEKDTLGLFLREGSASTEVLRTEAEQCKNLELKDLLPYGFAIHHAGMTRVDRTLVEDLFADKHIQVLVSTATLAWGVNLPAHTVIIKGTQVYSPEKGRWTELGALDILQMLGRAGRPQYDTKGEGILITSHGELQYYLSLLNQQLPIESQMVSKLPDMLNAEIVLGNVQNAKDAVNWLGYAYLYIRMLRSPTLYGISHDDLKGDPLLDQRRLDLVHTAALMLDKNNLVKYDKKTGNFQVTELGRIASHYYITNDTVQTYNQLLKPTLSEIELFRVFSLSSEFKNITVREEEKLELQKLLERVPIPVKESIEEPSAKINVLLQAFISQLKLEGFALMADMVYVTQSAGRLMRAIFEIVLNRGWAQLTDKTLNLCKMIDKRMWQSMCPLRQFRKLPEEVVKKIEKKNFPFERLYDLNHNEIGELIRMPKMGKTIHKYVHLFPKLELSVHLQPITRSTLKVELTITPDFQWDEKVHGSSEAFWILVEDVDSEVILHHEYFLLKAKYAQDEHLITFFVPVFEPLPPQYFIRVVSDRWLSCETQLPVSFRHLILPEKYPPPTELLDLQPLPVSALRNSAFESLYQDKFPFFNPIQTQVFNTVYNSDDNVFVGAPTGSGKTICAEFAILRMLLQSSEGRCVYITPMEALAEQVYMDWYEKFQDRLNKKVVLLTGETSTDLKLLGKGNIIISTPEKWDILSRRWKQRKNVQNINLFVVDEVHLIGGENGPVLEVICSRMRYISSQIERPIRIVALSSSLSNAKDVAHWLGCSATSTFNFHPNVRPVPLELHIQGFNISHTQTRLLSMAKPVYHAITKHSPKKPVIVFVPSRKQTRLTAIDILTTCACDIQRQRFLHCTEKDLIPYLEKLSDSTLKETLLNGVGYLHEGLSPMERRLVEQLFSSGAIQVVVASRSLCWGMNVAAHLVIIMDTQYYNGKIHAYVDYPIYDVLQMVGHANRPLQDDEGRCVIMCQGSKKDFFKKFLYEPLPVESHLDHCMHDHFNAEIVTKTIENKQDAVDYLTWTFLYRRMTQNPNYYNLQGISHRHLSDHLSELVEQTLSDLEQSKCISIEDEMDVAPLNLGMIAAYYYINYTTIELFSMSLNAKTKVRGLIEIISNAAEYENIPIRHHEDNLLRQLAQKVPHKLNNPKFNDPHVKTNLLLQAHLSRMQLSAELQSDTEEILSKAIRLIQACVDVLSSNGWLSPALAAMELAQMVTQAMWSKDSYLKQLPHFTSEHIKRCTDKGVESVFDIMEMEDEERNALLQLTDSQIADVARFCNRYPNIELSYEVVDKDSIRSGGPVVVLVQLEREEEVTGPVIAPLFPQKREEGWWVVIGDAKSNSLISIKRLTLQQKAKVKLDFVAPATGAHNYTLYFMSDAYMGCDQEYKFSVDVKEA
hBrr2T1-SS-rot+, sequence (O75643 395-2129 D534C/N1866C): as the sequence (O75643 395-2129 M641C/A1582C) above, with D140C, C247M, C1188A, N1472C counted along it
hBrr2T1, sequence (O75643 395-2129): as the sequence (O75643 395-2129 M641C/A1582C) above, with C247M, C1188A counted along it

B1: RNA duplex with 3' ss overhang (dsRNA)
RNA 1: CGCGUGCUGGUCGAAAUUUAAUUAUAAACCAGACCGUC
RNA 2: GACCAGCACGCG
binds: all assays above
